Reference: patent publication US20040018558A1 (published 2004)
Where no end group is shown, it is not given here.

T1: human thrombin receptor (PAR1) (human, UniProt P25116 42-425)
T1 sequence (looked up): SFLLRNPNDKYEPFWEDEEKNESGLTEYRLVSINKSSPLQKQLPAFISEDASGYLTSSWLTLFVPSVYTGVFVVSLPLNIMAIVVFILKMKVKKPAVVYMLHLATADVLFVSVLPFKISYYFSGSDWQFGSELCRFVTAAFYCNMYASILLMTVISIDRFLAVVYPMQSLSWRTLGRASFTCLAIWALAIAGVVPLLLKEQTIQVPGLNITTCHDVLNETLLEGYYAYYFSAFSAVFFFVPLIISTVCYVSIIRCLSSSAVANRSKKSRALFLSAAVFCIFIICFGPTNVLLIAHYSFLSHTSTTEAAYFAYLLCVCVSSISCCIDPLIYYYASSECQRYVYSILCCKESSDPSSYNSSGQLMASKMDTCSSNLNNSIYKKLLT


Target: T1, human thrombin receptor (PAR1)
Experiment: cell-based or functional assay

| decrease in thrombin-mediated HA-MAPK activity against pcDNA | thrombin mediated increase of HA-MAPK activity | Binder |
| --- | --- | --- |
| 50% |  | MGLQENLKDIMLQ [Gα12 C-terminal minigene peptide (pcDNA-Gα12)] |
| 57% |  | MGLQLNLKEYNAV [Gαq C-terminal minigene peptide (pcDNA-Gαq)] |
| 77% |  | MGLHDNLKQLMLQ [Gα13 C-terminal minigene peptide (pcDNA-Gα13)] |
|  | 4.46 fold | MGNGIKCLFNDKL [GαiR control minigene peptide (Gαi1/2 carboxyl terminus in random order)] |
| 59% |  | MGIKNNLKDCGLF [Gαi C-terminal minigene peptide (pcDNA-Gαi)] |

Target: T2, light-activated rhodopsin (bovine rod outer segment membranes) (bovine, UniProt P02699 1-348, retinylidene chromophore bound to Lys-296)
T2 construct: whole, on cells; native receptor in membrane fragments immobilised on wells, not intact cells; also called metarhodopsin II; MII
T2 sequence (P02699 whole entry, the tested form may be a part): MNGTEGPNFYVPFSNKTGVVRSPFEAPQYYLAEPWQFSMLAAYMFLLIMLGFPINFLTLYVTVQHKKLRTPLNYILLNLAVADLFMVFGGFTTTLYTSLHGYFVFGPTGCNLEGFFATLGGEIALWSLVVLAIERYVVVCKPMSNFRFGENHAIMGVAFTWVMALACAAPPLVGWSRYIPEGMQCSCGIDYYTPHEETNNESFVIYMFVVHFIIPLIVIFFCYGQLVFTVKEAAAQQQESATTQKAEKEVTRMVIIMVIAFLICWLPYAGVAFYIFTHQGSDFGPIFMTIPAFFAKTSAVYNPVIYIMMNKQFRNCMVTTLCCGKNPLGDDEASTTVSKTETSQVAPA
Experiment: not detailed in the sentence

| fold binding against the native sequence | Binder |
| --- | --- |
| 1000 fold | LLENLRDCGMF (also called HAP) [Peptide 8 (LLENLRDCGMF)] |

Target: T3, dark-adapted rhodopsin (bovine rod outer segment membranes) (bovine, UniProt P02699 1-348, retinylidene chromophore bound to Lys-296)
T3 construct: whole, on cells; also called dark-adapted bovine rhodopsin
T3 sequence (P02699 whole entry): as the sequence (P02699 whole entry, the tested form may be a part) above
Experiment: LacI display panning, dark-adapted ROS membranes

| binding result | Binder |
| --- | --- |
| binds | IRENLKDLGLV (peptide, not shown: small tags and cut ends, also: fused to LacI carrier via linker, letters not given here) [Clone No. 21 (Table X) IRENLKDLGLV] |
| binds | IRNNLKRYGMF (peptide, not shown: small tags and cut ends, also: fused to LacI carrier via linker, letters not given here) [Clone No. 17 (Table X) IRNNLKRYGMF] |
| binds | VRDNLKNCFLF (peptide, not shown: small tags and cut ends, also: fused to LacI carrier via linker, letters not given here) [Clone No. 3 (Table X) VRDNLKNCFLF] |
| binds | IREKWKDLALF (peptide, not shown: small tags and cut ends, also: fused to LacI carrier via linker, letters not given here) [Clone No. 2 (Table X) IREKWKDLALF] |
| binds | IRGTLKGWGLF (peptide, not shown: small tags and cut ends, also: fused to LacI carrier via linker, letters not given here) [Clone No. 41 (Table X) IRGTLKGWGLF] |
| binds | IRENFKYLGLW (peptide, not shown: small tags and cut ends, also: fused to LacI carrier via linker, letters not given here) [Clone No. 26 (Table X) IRENFKYLGLW] |
| binds | SLEILKDWGLF (peptide, not shown: small tags and cut ends, also: fused to LacI carrier via linker, letters not given here) [Clone No. 33/37 (Table X) SLEILKDWGLF] |
| binds | IGEQIEDCGPF (peptide, not shown: small tags and cut ends, also: fused to LacI carrier via linker, letters not given here) [Clone No. 7 (Table X) IGEQIEDCGPF] |

Target: T4, rhodopsin (activation state not stated) (bovine, UniProt P02699 1-348)
T4 construct: whole, on cells; same protein as m1; also called EDTA-washed rhodopsin
T4 sequence (P02699 whole entry): as the sequence (P02699 whole entry, the tested form may be a part) above
Experiment: ELISA of lysates, OD450 with receptor minus without receptor
Experimental: The methods of Example 7 repeated using rhodopsin screening with a Gt library. To identify the rank order of binding, the lysates were analyzed using ELISA methods in which the secondary antibody was conjugated to HRP. Following addition of the substrate, the microplate was read using a spectrophotometer. The binding is the OD₄₅₀ for wells with receptor—OD₄₅₀ for wells in which no receptor (control wells with empty lipid vesicles).

| ELISA | Binder |
| --- | --- |
| 0.823 OD450 | LLDILKDCGLF (peptide, not shown: small tags and cut ends, also: fused to lysate carrier and linker, not given here) [L38 LLDILKDCGLF] |
| 0.506 OD450 | IHDRLKDCGLF (peptide, not shown: small tags and cut ends, also: fused to fusion carrier of the lysate via linker, not given here, first of two rows labelled L10) [L10 IHDRLKDCGLF] |
| 0.621 OD450 | VRDILKDCGLF (peptide, not shown: small tags and cut ends, also: fused to fusion carrier of the lysate via linker, not given here) [L15 VRDILKDCGLF] |
| 0.423 OD450 | IRGSLKDCGLF (peptide, not shown: small tags and cut ends, also: fused to LacI carrier via linker, letters not given here, also called L20) [Clone No. 13 (Table IX) IRGSLKDCGLF] |
| 0.257 OD450 | IVKNLEDCGLF (peptide, not shown: small tags and cut ends, also: fused to lysate carrier and linker, not given here) [L8 IVKNLEDCGLF] |
| 0.6 OD450 | ILQNLKDCGLF (peptide, not shown: small tags and cut ends, also: fused to fusion carrier of the lysate via linker, not given here) [L17 ILQNLKDCGLF] |
| 0.187 OD450 | ISKNLRDCGLL (peptide, not shown: small tags and cut ends, also: fused to fusion carrier of the lysate via linker, not given here) [L13 ISKNLRDCGLL] |
| 0.603 OD450 | ILESLNECGLF (peptide, not shown: small tags and cut ends, also: fused to fusion carrier of the lysate via linker, not given here) [L34 ILESLNECGLF] |
| 0.833 OD450 | LRENLKDCGLL (peptide, not shown: small tags and cut ends, also: fused to fusion carrier of the lysate via linker, not given here) [L14 LRENLKDCGLL] |

Target: T2, light-activated rhodopsin (bovine rod …)
Experiment: LacI display panning, light-activated ROS membranes, peptide 8 added in rounds 3 and 4
Experimental: The panning process is illustrated in FIG. 1. For screening of the library by “panning,” rhodopsin receptors prepared according to Example 5 were immobilized directly on Immulon 4 (Dynatech) microtiter wells (0.1-1 μg of protein per well) in cold 35 mM HEPES, pH 7.5, containing 0.1 mM EDTA, 50 mM KCl and 1 mM dithiothreitol (HEK/DTT). After shaking for one hour at 4° C., unbound membrane fragments were washed away with HEK/DTT. The wells were blocked with 100 μl 2% BSA in HEKL (35 mM HEPES; 0.1 mM EDTA; 50 mM KCl; 0.2 M α-lactose; pH 7.5, with 1 mM DTT). For rounds 1 and 2, BSA was used for blocking; in later rounds 1% nonfat dry milk was used. For the first round of panning, about 24 wells of a 96-well plate were used. In subsequent rounds, 8 wells with receptor and 8 wells without receptor were prepared.
To identify peptides having even higher affinity to light-activated rhodopsin than those identified by the panning procedure described in Example 7, a high affinity peptide was included in the library incubations in rounds three and four. […] Screening of the Gαt library was performed as in Example 7, except that 10 μL 100 μM ([…]) peptide 8 was included in the wells in rounds three and four. […] Residues L344, C347 and G348 remained stable whether peptide 8 was included in the screen or not.

| binding result | Binder |
| --- | --- |
| binds | ILENLKDCGLL (peptide, not shown: small tags and cut ends, also: fused to LacI carrier via linker, letters not given here) [Clone No. 3 (Table XVIII) ILENLKDCGLL] |
